Measured values taken from US20030176678A1.

Molecular target: intact IFNAR1 from human cells (IFNAR1 chain of the type I interferon receptor) (human) (UniProt P17181)
Assay: cell-based or functional assay

Chain of UniProt P17181 (P17181 28-557): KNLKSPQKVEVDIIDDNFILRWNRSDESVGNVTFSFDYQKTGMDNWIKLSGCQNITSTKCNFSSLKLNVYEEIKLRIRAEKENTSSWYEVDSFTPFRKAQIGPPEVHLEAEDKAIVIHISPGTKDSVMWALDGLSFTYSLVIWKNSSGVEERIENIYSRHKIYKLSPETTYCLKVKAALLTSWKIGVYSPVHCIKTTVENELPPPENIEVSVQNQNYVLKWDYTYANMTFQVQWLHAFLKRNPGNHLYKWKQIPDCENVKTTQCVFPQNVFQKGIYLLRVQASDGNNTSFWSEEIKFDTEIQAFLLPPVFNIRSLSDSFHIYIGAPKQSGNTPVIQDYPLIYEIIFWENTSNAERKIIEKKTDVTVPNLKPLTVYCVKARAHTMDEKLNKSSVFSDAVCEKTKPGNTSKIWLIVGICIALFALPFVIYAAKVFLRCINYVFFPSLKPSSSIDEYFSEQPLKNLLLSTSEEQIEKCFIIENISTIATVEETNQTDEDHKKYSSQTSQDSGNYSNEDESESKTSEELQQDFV

Substance: IR1B4/PRMT enzyme (endogenous protein of human myeloma U266S cells) (from UniProt Q99873 11-371)
- reduction in the growth inhibitory effect of IFN-β on myeloma U266S cells by antisense-1 oligonucleotide (Alamar Blue): < 5 fold
